These results are taken from patent US20040106198.

One data set concerns the target T1, N-Suc-GGG-pNA.
T1 chain: GGG

Another data set deals with T2, N-Suc-PFR-pNA.
T2 chain: PFR

For the next data set, the target named is T3, N-Suc-AAA-pNA.
T3 chain: AAA

The target of data set [1] is oxidized bovine insulin B chain, P01317.
Another data set deals with T4, N-Suc-AAPL-pNA.
T4 chain: AAPL

A further data set has as its target T5, N-Suc-VGR-pNA.
T5 chain: VGR

The next data set concerns the target T6, N-Suc-AAPI-pNA.
T6 chain: AAPI

The target of a further data set is T7, N-Suc-AAPA-pNA.
T7 chain: AAPA

A further data set deals with T8, N-Suc-AAPM-pNA.
T8 chain: AAPM

The next data set addresses T9, N-Suc-FVR-pNA.
T9 chain: FVR

The target in a further data set is T10, N-Suc-YLV-pNA.
T10 chain: YLV

The target of another data set is T11, N-Suc-GPK-pNA.
T11 chain: GPK

The next data set deals with T12, N-Suc-AAPD-pNA.
T12 chain: AAPD

The target in a further data set is T13, N-Suc-GGL-pNA.
T13 chain: GGL

For the next data set, the target named is T14, N-Suc-GGF-pNA.
T14 chain: GGF

In data set [2] the target is human growth hormone, P01241.
For the next data set, the target named is T15, N-Suc-AAV-pNA.
T15 chain: AAV

A further data set has as its target T16, N-Suc-GFG-pNA.
T16 chain: GFG

In another data set the target is T17, N-Suc-IEGR-pNA.
T17 chain: IEGR

The next data set addresses T18, N-Suc-AAVA-pNA.
T18 chain: AAVA

The target of another data set is T19, N-Suc-YVAD-pNA.
T19 chain: YVAD

The target in another data set is T20, N-Suc-AAPF-pNA.
T20 chain: AAPF

A further data set concerns the target T21, N-Suc-AAPV-pNA.
T21 chain: AAPV

Sequence of oxidized bovine insulin B chain, P01317 (P01317 25-54): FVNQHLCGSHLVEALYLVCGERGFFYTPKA
Sequence of human growth hormone, P01241 (P01241 27-217): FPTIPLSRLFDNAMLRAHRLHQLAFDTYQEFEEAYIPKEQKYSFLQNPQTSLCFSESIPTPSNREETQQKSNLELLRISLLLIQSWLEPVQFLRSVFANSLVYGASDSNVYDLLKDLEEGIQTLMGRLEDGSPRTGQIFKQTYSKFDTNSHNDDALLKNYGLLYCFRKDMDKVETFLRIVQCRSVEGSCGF

B1: Nicotianalisin (Nicotiana benthamiana subtilisin-like serine protease) (protein)
chain: ANCITMYFLLLTILLLTLNPLTMAESETYIIHMDLSAMPKAFSSHQNWYLTTLASVSGSSSLGTESNRNSFSSSKLVYAYTNAIHGFSATLSPSELQVIKNSPGYLSSTKDMTVKIDTTHTSQFLGLNSDSGAWPKSDYGKDVIVGLVDTGIWPESKSYNDNGMTEVPSRWKGECESGTQFNSSLCNKKLIGARYFNKGLIANNPNITISMNSARDTDGHGTHTSSTAAGSHVESASYFGYARGSATGMAPKAHVAMYKALWEEGTMLSDILAAIDQAIEDGVDIISLSLGIDDLALYEDPVAIATFAAMEKDIFVSTSAGNEGPDDQALHNGTPWVLTVAAGTVDREFIGTLSLGNGVSVTGLSLYPGNSSSSESSIVFLKTCLEEKELEKNAHKFAVCYDTNGSVSDQLYNVKNTKVAGGIFITNYTDLEFYLQSEFPAVFLNFEDGDKVLEYIKNSHSPKARLEFQVTHLGAKPAPKVASYSSRGPSESCPFILKPDLMAPGALILASWPQKSPATQIRSGELFSNFNIISGTSMSCPHAAGVAALLKGAHPKWSPAAIRSAMMTTADTMDNMQMPIRDIGRNNNAASPLAMGAGRINPNKALDPGLIYDITSQDYINLLCALDFTSQQIKAITRSSAYSCSNSSLDLNYPSFIGYFNYNSSESDPKRIQEFQRTVTNVGEGMSVYTAKLTSMGDYKASVAPDKLVFKEKYEKQSYKLRIEGPLLVDIILFMVL
B1: the Relative Activity (release of p-NA at 410 nm, 0.3 mM substrate) (% of the activity with N-Suc-AAPL-pNA) in the data set with N-Suc-GGG-pNA amounted to 1; with N-Suc-PFR-pNA, 1; with N-Suc-AAA-pNA, 2; with N-Suc-AAPL-pNA, 100; with N-Suc-VGR-pNA it was 3; with N-Suc-AAPI-pNA it was 8. Besides, the Relative Activity (release of p-NA at 410 nm, 0.3 mM substrate) (% of the activity with N-Suc-AAPL-pNA) was 24 with N-Suc-AAPA-pNA; 100 with N-Suc-AAPM-pNA; 1 with N-Suc-FVR-pNA; 0 in the data set with N-Suc-YLV-pNA; 2 in the data set with N-Suc-GPK-pNA; 16 in the data set with N-Suc-AAPD-pNA. The Relative Activity (release of p-NA at 410 nm, 0.3 mM substrate) (% of the activity with N-Suc-AAPL-pNA) with N-Suc-GGL-pNA is 1; with N-Suc-GGF-pNA it was 3; with N-Suc-AAV-pNA, 5; with N-Suc-GFG-pNA it was 1; with N-Suc-IEGR-pNA, 18; in the data set with N-Suc-AAVA-pNA it was 20. The results for the Relative Activity (release of p-NA at 410 nm, 0.3 mM substrate) (% of the activity with N-Suc-AAPL-pNA) with N-Suc-YVAD-pNA, with N-Suc-AAPF-pNA and with N-Suc-AAPV-pNA were 70, 67 and 8, respectively. Further, the “hydrolysis of oxidized insulin B chain, 2 to 16 hr at 37 C, MALDI-TOF of the cleavage products (FIG. 6)” value in data set [1] is “hydrolysis occurred after leucine, cysteine, proline, and lysine amino acid residues”. Besides, the “in vitro cleavage of purified hGH at a 1:50 protease:substrate ratio, 10-30 min at 30 C, SDS-PAGE and Western blot (FIGS. 7 and 8)” value in data set [2] is “Two prominent immunoreactive degradation products were detected”.
